From US20110111406A1 (published 2011)
Residue numbers refer to the chain shown, from its start.

B1: Fv2-IgG1 (antibody, V domains shown)
VH: QVQLQESGPGLVKPSETLSLTCAVSGYSISHDHAWSWVRQPPGEGLEWIGHISYSGITNYNPHLQDRVTISRDTSKNQFSLKLSSVTAADTAAYYCARFLARITAHDHWGEGTLVTVSS
VL: DIQMTQSPSSLSASVGDSVTITCQASQDISSHLNWYQQKPGKAPELLIYYGSHLHSGVPSRFSGSGSGTDFTFTISSLEAEDAATYYCGQGNRLPYTFGQGTKVEIE
notes: also called VH1-IgG1/L82
B2: Fv4-IgG1 (antibody)
heavy: not shown
light: DIQMTQSPSSLSASVGDSVTITCQASTDISSHLNWYQQKPGKAPELLIYYGSHLLSGVPSRFSGSGSGTDFTFTISSLEAEDAATYYCGQGNRLPYTFGQGTKVEIERTVAAPSVFIFPPSDEQLKSGTASVVCLLNNFYPREAKVQWKVDNALQSGNSQESVTEQDSKDSTYSLSSTLTLSKADYEKHKVYACEVTHQGLSSPVTKSFNRGEC
notes: also called VH3-IgG1/VL3-CK
B3: H54/L28-IgG1 (antibody, V domains shown)
VH: B1 VH with H31D, H33Q, H51Y, H63S, Q65K, D66G, F99S, I103T, H106M, H108Y
VL: B1 VL with H32Y, H53E, G89Q, R93S
notes: tested as IgG1
B4: Fv4-M58 (antibody)
heavy: QVQLQESGPGLVKPSETLSLTCAVSGHSISHDHAWSWVRQPPGEGLEWIGFISYSGITNYNPSLQGRVTISRDNSKNTLYLQMNSLRAEDTAVYYCARSLARTTAMDYWGEGTLVTVSSASTKGPSVFPLAPSSKSTSGGTAALGCLVKDYFPEPVTVSWNSGALTSGVHTFPAVLQSSGLYSLSSVVTVPSSNFGTQTYTCNVDHKPSNTKVDKTVERKSCVECPPCPAPPVAGPSVFLFPPKPKDTLMISRTPEVTCVVVDVSQEDPEVQFNWYVDGVEVHNAKTKPREEQFNSTFRVVSVLTVVHQDWLNGKEYKCKVSNKGLPAPIEKTISKTKGQPREPQVYTLPPSQEEMTKNQVSLTCLVKGFYPSDIAVEWESNGQPENNYKTTPPMLDSDGSFFLYSKLTVDKSRWQEGNVFSCSVMHEALHNHYTQKSLSLSP
light: B2 light
notes: also called VH3-M58/VL3-CK
B5: Fv3-M73 (antibody)
heavy: B4 heavy with S63T, N432A
light: B2 light with T27R
notes: also called VH4-M73/VL1-CK
B6: Fv4-IgG2 (antibody)
heavy: B4 heavy with S133C, K135R, G139E, G140S, S221C, Q266H, Q353R, E417Q
light: B2 light
notes: also called Fv4-IgG2ΔGK; VH3-IgG2ΔGK/VL3-CK
B7: Fv4-M73 (antibody)
heavy: B4 heavy with N432A
light: B2 light
notes: also called VH3-M73/VL3-CK
B8: Fv1-M71 (antibody, human IgG2, kappa)
heavy: QVQLQESGPGLVKPSETLSLTCAVSGYSISHDHAWSWVRQPPGEGLEWIGHISYSGITNYNPHLQDRVTISRDTSKNQFSLKLSSVTAADTAVYYCARFLARITAHDHWGEGTLVTVSSASTKGPSVFPLAPCSRSTSESTAALGCLVKDYFPEPVTVSWNSGALTSGVHTFPAVLQSSGLYSLSSVVTVPSSNFGTQTYTCNVDHKPSNTKVDKTVERKCCVECPPCPAPPVAGPSVFLFPPKPKDTLMISRTPEVTCVVVDVSHEDPEVQFNWYVDGVEVHNAKTKPREEQFNSTFRVVSVLTVVHQDWLNGKEYKCKVSNKGLPAPIEKTISKTKGQPREPQVYTLPPSREEMTKNQVSLTCLVKGFYPSDIAVEWESNGQPENNYKTTPPMLDSDGSFFLYSKLTVDKSRWQQGNVFSCSVMHEALHAHYTQKSLSLSPGK
light: B2 light with T27R, L55E
notes: also called VH2-M71/VL2-CK
B9: Fv1-M73 (antibody)
heavy: QVQLQESGPGLVKPSETLSLTCAVSGYSISHDHAWSWVRQPPGEGLEWIGHISYSGITNYNPHLQDRVTISRDTSKNQFSLKLSSVTAADTAVYYCARFLARITAHDHWGEGTLVTVSSASTKGPSVFPLAPSSKSTSGGTAALGCLVKDYFPEPVTVSWNSGALTSGVHTFPAVLQSSGLYSLSSVVTVPSSNFGTQTYTCNVDHKPSNTKVDKTVERKSCVECPPCPAPPVAGPSVFLFPPKPKDTLMISRTPEVTCVVVDVSQEDPEVQFNWYVDGVEVHNAKTKPREEQFNSTFRVVSVLTVVHQDWLNGKEYKCKVSNKGLPAPIEKTISKTKGQPREPQVYTLPPSQEEMTKNQVSLTCLVKGFYPSDIAVEWESNGQPENNYKTTPPMLDSDGSFFLYSKLTVDKSRWQEGNVFSCSVMHEALHAHYTQKSLSLSP
light: B2 light with T27R, L55E
notes: also called VH2-M73/VL2-CK
B10: Fv3-M71 (antibody, human IgG2, kappa)
heavy: QVQLQESGPGLVKPSETLSLTCAVSGHSISHDHAWSWVRQPPGEGLEWIGFISYSGITNYNPTLQGRVTISRDNSKNTLYLQMNSLRAEDTAVYYCARSLARTTAMDYWGEGTLVTVSSASTKGPSVFPLAPCSRSTSESTAALGCLVKDYFPEPVTVSWNSGALTSGVHTFPAVLQSSGLYSLSSVVTVPSSNFGTQTYTCNVDHKPSNTKVDKTVERKCCVECPPCPAPPVAGPSVFLFPPKPKDTLMISRTPEVTCVVVDVSHEDPEVQFNWYVDGVEVHNAKTKPREEQFNSTFRVVSVLTVVHQDWLNGKEYKCKVSNKGLPAPIEKTISKTKGQPREPQVYTLPPSREEMTKNQVSLTCLVKGFYPSDIAVEWESNGQPENNYKTTPPMLDSDGSFFLYSKLTVDKSRWQQGNVFSCSVMHEALHAHYTQKSLSLSPGK
light: B2 light with T27R
notes: also called VH4-M71/VL1-CK

The binders below were run against T1, recombinant soluble human IL-6 receptor (SR344) (human, UniProt P08887 20-344) (assay: Biacore T100, biotinylated SR344 immobilized via streptavidin (membrane-type IL-6 receptor model), antibody as analyte; ratio of kd at pH 5.8 to pH 7.4).
T1 construct: In the 'membrane-type IL-6 receptor' Biacore assays the same SR344 was biotinylated and immobilized via streptavidin; also called soluble IL-6 receptor; membrane-type IL-6 receptor (as biotinylated SR344 immobilized on the sensor chip)
T1 sequence (looked up): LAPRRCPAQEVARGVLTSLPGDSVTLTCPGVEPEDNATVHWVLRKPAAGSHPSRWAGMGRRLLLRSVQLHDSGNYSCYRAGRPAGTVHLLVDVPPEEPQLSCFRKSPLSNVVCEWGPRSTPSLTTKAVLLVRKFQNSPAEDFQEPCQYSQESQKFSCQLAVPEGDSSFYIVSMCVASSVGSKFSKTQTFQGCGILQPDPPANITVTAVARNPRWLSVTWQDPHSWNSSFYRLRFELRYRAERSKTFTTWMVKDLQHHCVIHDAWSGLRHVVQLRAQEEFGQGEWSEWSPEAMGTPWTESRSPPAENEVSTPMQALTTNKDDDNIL
Method: (§1) Binding to the membrane-type IL-6 receptor was evaluated by evaluating binding to the IL-6 receptor immobilized on a sensor chip. SR344 was biotinylated in accordance with a method known among persons with ordinary skill in the art, and the biotinylated SR344 was immobilized on the sensor chip via streptavidin using the affinity between streptavidin and biotin. All the measurements were carried out at 37° C. The mobile phase buffer was 10 mM MES (pH 5.8), 150 mM NaCl and 0.05% Tween 20.
(§2) The pH-dependently-binding clones were injected under the condition of pH 7.4 to allow them to bind to SR344, and then, the pH-dependent dissociation of each clone at the pH of the mobile phase, pH 5.8, was observed. The results are shown in FIG. 21 (results for Fv1-M71, Fv1-M73, Fv3-M71, and Fv3-M73 are shown in FIG. 21, while results for other clones are shown in FIGS. 17 and 19). Analyses were carried out in the same manner as in Example 10 and the pH dependencies of the dissociation rate constants of all of the eleven types of clones are shown in Table 12.
B1 was tested, and the “kd(pH 5.8)/kd(pH 7.4)” value was 7.18. In the case of B2, the “kd(pH 5.8)/kd(pH 7.4)” value is reported as 5.56.

The binders below were run against T1, recombinant soluble human IL-6 receptor … (assay: Biacore T100, antibody captured on protein A/G, SR344 as analyte, 37C; ratio of KD at pH 5.8 to pH 7.4).
Method: (§3) Kinetic analysis of antigen-antibody reactions at pH 7.4 and pH 5.8 was carried out using Biacore T100 (GE Healthcare) for the four types of antibodies prepared: WT-IgG1, H54/L28-IgG1, H170/L82-IgG1, and Fv4-IgG1(buffer: 10 mM MES (pH 7.4 or pH 5.8), 150 mM NaCl, 0.05% Surfactant-P20). The antibodies were bound to a sensor chip on which recomb-protein A/G (Pierce) was immobilized by amine coupling, and SR344 adjusted to an appropriate concentration was injected therein as an analyte. The association with and dissociation from SR344 of each type of antibody were observed on a real-time basis. All the measurements were carried out at 37° C. Association rate constants kₐ (1/Ms) and dissociation rate constants kd (1/s) were calculated using Biacore T100 Evaluation Software (GE Healthcare), and dissociation constants KD (M) were calculated based on those values (Table 17).
With B2 the “KD(pH5.8)/KD(pH7.4)” value was 27.3. B3 was tested, and the “KD(pH5.8)/KD(pH7.4)” value was 0.7.

Target: T1, recombinant soluble human IL-6 receptor …
Assay: Biacore T100, biotinylated SR344 immobilized via streptavidin (membrane-type IL-6 receptor model), antibody as analyte; ratio of kd at pH 5.8 to pH 7.4
Remark: another data set of the same source
Method: as §1, §2
In the case of B4, the “kd(pH 5.8)/kd(pH 7.4)” value is reported as 17.6. For B5, the “kd(pH 5.8)/kd(pH 7.4)” value was 10.9. In the case of B6, the “kd(pH 5.8)/kd(pH 7.4)” value is reported as 17. B7 was tested, and the “kd(pH 5.8)/kd(pH 7.4)” value was 10.1. B8 was tested, and the “kd(pH 5.8)/kd(pH 7.4)” value was 11.3. B9 was tested, and the “kd(pH 5.8)/kd(pH 7.4)” value was 8.8. With B1 the “kd(pH 5.8)/kd(pH 7.4)” value was 7.18. For B10, the “kd(pH 5.8)/kd(pH 7.4)” value was 10.7. For B2, the “kd(pH 5.8)/kd(pH 7.4)” value was 5.56.

Target: T1, recombinant soluble human IL-6 receptor …
Assay: as above
Remark: another data set of the same source
Method: as §1, §2
In the case of B4, the “kd(pH 5.8)/kd(pH 7.4)” value is reported as 17.6. B6 was tested, and the “kd(pH 5.8)/kd(pH 7.4)” value was 17. B7 was tested, and the “kd(pH 5.8)/kd(pH 7.4)” value was 10.1. B2 was tested, and the “kd(pH 5.8)/kd(pH 7.4)” value was 5.56.

The binders below were run against T1, recombinant soluble human IL-6 receptor … (assay: Biacore T100, antibody captured on protein A/G, SR344 as analyte, 37C; ratio of kd at pH 5.8 to pH 7.4).
Method: as §3
For B2, the “kd(pH 5.8)/kd(pH 7.4)” value was 38.8. For B3, the “kd(pH 5.8)/kd(pH 7.4)” value was 2.
